Source: patent US20130166268

Test system: full-length rat proMMP9(1-708) (SEQ ID NO:11)
Sequence (chain, as listed by the source): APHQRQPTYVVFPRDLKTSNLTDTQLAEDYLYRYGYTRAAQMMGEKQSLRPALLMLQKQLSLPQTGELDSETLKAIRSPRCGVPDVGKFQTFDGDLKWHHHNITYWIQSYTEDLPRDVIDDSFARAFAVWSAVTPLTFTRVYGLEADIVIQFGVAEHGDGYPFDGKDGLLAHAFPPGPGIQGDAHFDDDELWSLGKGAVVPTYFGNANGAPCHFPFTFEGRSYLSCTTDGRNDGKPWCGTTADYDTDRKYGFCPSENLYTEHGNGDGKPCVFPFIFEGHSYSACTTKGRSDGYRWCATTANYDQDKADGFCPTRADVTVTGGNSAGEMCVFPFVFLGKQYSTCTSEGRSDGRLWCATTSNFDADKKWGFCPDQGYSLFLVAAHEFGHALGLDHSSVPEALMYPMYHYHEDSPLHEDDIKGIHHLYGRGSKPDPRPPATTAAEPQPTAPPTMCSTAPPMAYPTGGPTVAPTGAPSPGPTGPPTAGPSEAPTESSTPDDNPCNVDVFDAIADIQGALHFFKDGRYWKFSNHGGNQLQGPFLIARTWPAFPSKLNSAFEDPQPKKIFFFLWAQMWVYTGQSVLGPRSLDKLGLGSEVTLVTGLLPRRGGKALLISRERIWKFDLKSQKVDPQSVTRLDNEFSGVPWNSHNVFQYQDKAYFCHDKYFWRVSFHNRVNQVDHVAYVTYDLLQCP

human catalytic MMP3, MMP3(100-265) (SEQ ID NO:8), sequence (chain, as listed by the source): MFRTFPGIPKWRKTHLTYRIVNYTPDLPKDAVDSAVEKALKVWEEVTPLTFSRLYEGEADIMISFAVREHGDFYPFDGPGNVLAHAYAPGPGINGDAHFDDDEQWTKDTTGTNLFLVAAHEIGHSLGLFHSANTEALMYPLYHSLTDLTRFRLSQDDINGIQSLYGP

human catalytic MMP3, MMP3(100-265) (SEQ ID NO:8)
conversion of proMMP9 to catalytic MMP9 (Western blot standard): full-length rat proMMP9(1-708) (SEQ ID NO:11) converted to catalytic rat MMP9 by catalytic MMP3
